{"source": "patent US20050142135A1", "about": "(UNIVERSITY OF KENTUCKY RESEARCH FOUNDATION, published 2005)", "binders": {"B1": {"name": "FSHR^K590F (receptor)", "chain": "CHHRICHCSNRVFLCQESKVTEIPSDLPRNAIELRFVLTKLRVIQKGAFSGFGDLEKIEISQNDVLEVIEADVFSNLPKLHEIRIEKANNLLYINPEAFQNLPNLQYLLISNTGIKHLPDVHKIHSLQKVLLDIQDNINIHTIERNSFVGLSFESVILWLNKNGIQEIHNCAFNGTQLDELNLSDNNNLEELPNDVFHGASGPVILDISRTRIHSLPSYGLENLKKLRARSTYNLKKLPTLEKLVALMEASLTYPSHCCAFANWRRQISELHPICNKSILRQEVDYMTQARGQRSSLAEDNESSYSRGFDMTYTEFDYDLCNEVVDVTCSPKPDAFNPCEDIMGYNILRVLIWFISILAITGNIIVLVILTTSQYKLTVPRFLMCNLAFADLCIGIYLLLIASVDIHTKSQYHNYAIDWQTGAGCDAAGFFTVFASELSVYTLTAITLERWHTITHAMQLDCKVQLRHAASVMVMGWIFAFAAALFPIFGISSYMKVSICLPMDIDSPLSQLYVMSLLVLNVLAFVVICGCYIHIYLTVRNPNIVSSSSDTRIAKRMAMLIFTDFLCMAPISFFAISASLKVPLITVSKAFILLVLFHPINSCANPFLYAIFTKNFRRDFFILLSKCGCYEMQAQIYRTETSSTVHNTHPRNGHCSSAPRVTSGSTYILVPLSHLAQN"}, "B2": {"name": "FSHR^K590L (receptor)", "chain": "B1 chain with F591L"}, "B3": {"name": "hCG (ligand)", "chain 1": "not shown", "chain 2": "SKEPLRPRCRPINATLAVEKEGCPVCITVNTTICAGYCPTMTRVLQGVLPALPQVVCNYRDVRFESIRLPGCPRGVNPVVSYAVALSCQCALCRRSTTDCGGPKDHPLTCDDPRFQDSSSSKAPPPSLPSPSRLPGPSDTPILPQ", "notes": "purchased from the National Hormone and Pituitary Program; also called human chorionic gonadotropin"}}, "key": {"human FSH": {"molecular_target": "T1, human FSH (human, UniProt P01215 25-116; P01225 19-129)", "T1 construct": "heterodimer, purchased from the National Hormone and Pituitary Program; also called follicle stimulating hormone", "assay": "125I-FSH competition binding on HEK293 cells, Scatchard", "experimental": "The Kd values were determined by Scatchard plots. Truncated exodomain was solubilized in Nonidet P-40 and assayed for hormone binding as described previously. For intracellular cAMP assay, cells were washed twice with Dulbecco's modified Eagle's media and incubated in the media containing isobutylmethylxanthine (0.1 mg/ml) for 15 minutes. […] After removing the media, the cells were rinsed once with fresh media without isobutylmethylxanthine, lysed in 70% ethanol, freeze-thawed in liquid nitrogen, and scraped. After pelleting cell debris at 16,000×g for 10 minutes at 4° C., the supernatant was collected, dried under vacuum and resuspended in 10 μl of the cAMP assay buffer, which was provided by the manufacturer. cAMP concentrations were determined with an ¹²⁵I-cAMP assay kit (Amersham) following the manufacturer's instruction and validated for use in our laboratory. Exoloop 3 of FSHR was modeled based on the crystal structure of rhodopsin as a template."}, "[1]": {"molecular_target": "T2, human LH receptor, wild type (human, UniProt P22888 27-699)", "T2 construct": "whole, on cells; stably expressed in HEK 293 cells; This holds for all LHR mutants and LHR peptides below; also called LH/CG receptor", "T2 sequence (P22888 27-699)": "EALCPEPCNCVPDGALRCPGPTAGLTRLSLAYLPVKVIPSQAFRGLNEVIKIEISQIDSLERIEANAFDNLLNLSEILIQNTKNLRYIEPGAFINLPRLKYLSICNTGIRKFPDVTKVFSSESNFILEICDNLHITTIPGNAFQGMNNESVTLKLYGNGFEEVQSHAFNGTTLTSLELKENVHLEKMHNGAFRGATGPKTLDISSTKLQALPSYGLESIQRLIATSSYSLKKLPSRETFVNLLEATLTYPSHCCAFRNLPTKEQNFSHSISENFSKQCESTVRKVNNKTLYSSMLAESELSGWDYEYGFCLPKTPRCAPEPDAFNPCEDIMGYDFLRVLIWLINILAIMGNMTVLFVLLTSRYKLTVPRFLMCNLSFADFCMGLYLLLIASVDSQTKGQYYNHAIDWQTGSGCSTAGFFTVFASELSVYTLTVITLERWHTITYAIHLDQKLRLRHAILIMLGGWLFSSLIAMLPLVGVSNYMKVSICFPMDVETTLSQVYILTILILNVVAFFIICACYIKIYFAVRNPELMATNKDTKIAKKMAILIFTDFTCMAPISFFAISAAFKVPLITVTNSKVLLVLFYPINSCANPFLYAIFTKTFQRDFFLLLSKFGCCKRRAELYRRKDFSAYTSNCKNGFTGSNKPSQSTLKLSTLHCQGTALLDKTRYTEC", "assay": "competition of 125I-hCG binding to cells expressing LHR", "experimental": "The Kd values were determined by Scatchard plots. For intracellular cAMP assay, cells were washed twice with Dulbecco's modified Eagle's media and incubated in the media containing isobutylmethylxanthine (0.1 mg/ml) for 15 minutes. Increasing concentrations of hormone were then added and the incubation was continued for 45 minutes at 37° C. After removing the media, the cells were rinsed once with fresh media without isobutylmethylxanthine, lysed in 70% ethanol, freeze-thawed in liquid nitrogen, and scraped."}}, "note": "Residue numbers refer to the chain shown, from its start. Names and notes keep the numbering of the source."}
{"binder": "B1", "values": [{"measurement": "Kd", "setting": "human FSH", "value": 50, "unit": "nM"}]}
{"binder": "B2", "values": [{"measurement": "Kd", "setting": "human FSH", "value": 7.2, "unit": "nM"}]}
{"binder": "B3", "values": [{"measurement": "potency relative to LHR^exo3 in inhibiting ^125I-hCG binding to LHR", "setting": "[1]", "value": "> 10000", "unit": "fold"}]}
